In doi:10.1101/746693 (bioRxiv, 2019):

Target: T1, Proteinase Activated Receptor-4 (PAR4)-YFP, wild type (human, UniProt Q96RI0 48-385)
T1 sequence (looked up): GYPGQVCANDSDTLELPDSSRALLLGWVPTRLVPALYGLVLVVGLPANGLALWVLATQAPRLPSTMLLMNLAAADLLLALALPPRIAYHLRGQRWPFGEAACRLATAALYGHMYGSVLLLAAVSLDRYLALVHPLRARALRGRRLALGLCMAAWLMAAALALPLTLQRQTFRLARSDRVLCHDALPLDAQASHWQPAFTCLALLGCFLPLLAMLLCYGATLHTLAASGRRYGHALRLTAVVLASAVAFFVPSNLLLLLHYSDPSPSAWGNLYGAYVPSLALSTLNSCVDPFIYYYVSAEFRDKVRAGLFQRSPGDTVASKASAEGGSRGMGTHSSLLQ
Test: FRET or BRET

EC50 of (N-Me-A)-YPGKF-NH2 for recruitment (BRET): 6.8 µM | EC50 of A-(N-Me-Y)-PGKF-NH2 for recruitment (BRET): 14.2 µM | EC50 of AYPG-(Nα-Me-K)-F-NH2 for recruitment (BRET): 12.2 µM | EC50 of AYPGK-(N-Me-F)-NH2 for recruitment (BRET): 10.4 µM | EC50 of Ac-AYPGKF-NH2 for recruitment (BRET): 15 µM | EC50 of VYPGKF-NH2 for recruitment (BRET): 33.8 µM
B1: β-arrestin-1-renilla luciferase (natural protein, UniProt P49407 1-418, looked up)
chain: MGDKGTRVFKKASPNGKLTVYLGKRDFVDHIDLVDPVDGVVLVDPEYLKERRVYVTLTCAFRYGREDLDVLGLTFRKDLFVANVQSFPPAPEDKKPLTRLQERLIKKLGEHAYPFTFEIPPNLPCSVTLQPGPEDTGKACGVDYEVKAFCAENLEEKIHKRNSVRLVIRKVQYAPERPGPQPTAETTRQFLMSDKPLHLEASLDKEIYYHGEPISVNVHVTNNTNKTVKKIKISVRQYADICLFNTAQYKCPVAMEEADDTVAPSSTFCKVYTLTPFLANNREKRGLALDGKLKHEDTNLASSTLLREGANREILGIIVSYKVKVKLVVSRGGLLGDLASSDVAVELPFTLMHPKPKEEPPHREVPENETPVDTNLIELDTNDDDIVFEDFARQRLKGMKDDKEEEEDGTGSPQLNNR
